67 sequences from the supplement of paper PMC10724198 can be followed below.

In this data set the test system is Saccharomyces cerevisiae. The data set can be described thus: protein stability index of tFT-peptide fusion (C-terminal peptide) (PSI (0-1 scale)); higher = more stable (slower turnover). Conditions: temperature: 30 C. The method, then:
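MPS profiling in S. cerevisiae of the yeast C-terminome library: the last 12 aa of each annotated ORF are fused to the C-terminus of a sfGFP-mCherry timer, after a GGGS linker. Cells are FACS-sorted into 8 mCherry/sfGFP bins and deep-sequenced. PSI runs from 0 (unstable) to 1 (stable); wild type and das1Δ backgrounds, two technical replicates each.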

Where [1] appears, read: genetic background: das1 deletion.

± gives the standard deviation of the averaged measurements.

As to STITSMNPDTTK [VHS2 C-terminal 12 aa], the protein stability index under setting [1] is 0.711 ± 0.031 and the protein stability index (genetic background: wild type) is 0.669 ± 0.04.
The matching figures for STKATPTDLSKL [MLS1 C-terminal 12 aa]: 0.7565 ± 0.0027 and 0.8075 ± 0.0051.
For the sequence STTMNFNYQTKV [SDD1 C-terminal 12 aa], the protein stability index is, setting by setting: under setting [1], 0.696 ± 0.011; (genetic background: wild type) 0.363 ± 0.0082.
The matching figures for STVLINVCKPTY [BAR1 C-terminal 12 aa]: 0.681 ± 0.013 and 0.667 ± 0.048.
Regarding SVFIAAVAAMLI [CCW14 C-terminal 12 aa], the protein stability index is, setting by setting: under setting [1], 0.603 ± 0.013; (genetic background: wild type) 0.586 ± 0.016.
As for SVSYASGYVTIG [MHO1 C-terminal 12 aa], the protein stability index worked out at 0.705 ± 0.034 under setting [1] and 0.64 ± 0.011 (genetic background: wild type).
The matching figures for SVTAGYLPDLWR [YCH1 C-terminal 12 aa]: 0.73 ± 0.0093 and 0.728 ± 0.036.
As for SYEIVKNGHKNS [APC2 C-terminal 12 aa], the protein stability index is, setting by setting: under setting [1], 0.6772 ± 0.0007; (genetic background: wild type) 0.687 ± 0.018.
The matching figures for TADIVYIDSELD [SPE1 C-terminal 12 aa]: 0.6746 ± 0.0022 and 0.694 ± 0.083.
The matching figures for TANKAGNKFQLS [LDO16 C-terminal 12 aa]: 0.707 ± 0.0029 and 0.675 ± 0.019.
For the sequence TATAPRLFDKLK [QCR6 C-terminal 12 aa], the protein stability index runs as follows: under setting [1], 0.7007 ± 0.007; (genetic background: wild type) 0.662 ± 0.026.
The matching figures for TAYFICGMVIQL [YDL041W C-terminal 12 aa]: 0.349 ± 0.014 and 0.34 ± 0.011.
The matching figures for TCEACGNRWKFS [DST1 C-terminal 12 aa]: 0.7329 ± 0.0019 and 0.697 ± 0.013.
On to TCEKSKCNCEKC [CRS5 C-terminal 12 aa], for which the protein stability index runs as follows: under setting [1], 0.682 ± 0.012; (genetic background: wild type) 0.69 ± 0.082.
In the case of TDGSKEDVDALP [ZNF1 C-terminal 12 aa], the protein stability index is, setting by setting: under setting [1], 0.688 ± 0.02; (genetic background: wild type) 0.716 ± 0.039.
Turning to “TEISRHFIVVFV [YHR182C-A C-terminal 12 aa]”, the protein stability index reads like this: under setting [1], 0.306 ± 0.0088; (genetic background: wild type) 0.351 ± 0.028.
The matching figures for TEKDSTTTNYRK [YJL218W C-terminal 12 aa]: 0.702 ± 0.028 and 0.698 ± 0.034.
The matching figures for TEPESDTEVETS [WHI5 C-terminal 12 aa]: 0.676 ± 0.01 and 0.662 ± 0.013.
The matching figures for TEPLYILRWLRS [YDR290W C-terminal 12 aa]: 0.678 ± 0.008 and 0.313 ± 0.0053.
As to TFAKSSRNKSKL [PCS60 C-terminal 12 aa], the protein stability index reads like this: under setting [1], 0.835 ± 0.011; (genetic background: wild type) 0.811 ± 0.073.
The matching figures for TFVDDKLKELPQ [PTP3 C-terminal 12 aa]: 0.719 ± 0.042 and 0.655 ± 0.0034.
The matching figures for THKQYFWKKPAK [TOS4 C-terminal 12 aa]: 0.707 ± 0.03 and 0.688 ± 0.058.
The matching figures for TIHTEVNIGIKQ [ENA1 C-terminal 12 aa]: 0.7199 ± 0.0013 and 0.736 ± 0.027.
With TKWHDKFGKLKN [SHE2 C-terminal 12 aa], the protein stability index reads like this: under setting [1], 0.693 ± 0.024; (genetic background: wild type) 0.6795 ± 0.0042.
On to TLFDLIEKKVTA [TAL1 C-terminal 12 aa], for which the protein stability index is, setting by setting: under setting [1], 0.67 ± 0.0085; (genetic background: wild type) 0.652 ± 0.028.
On to TLKKIFSKRSIS [YCL049C C-terminal 12 aa], for which the protein stability index reads like this: under setting [1], 0.722 ± 0.02; (genetic background: wild type) 0.4651 ± 0.0019.
In turn, TLTQEEINELST [LTE1 C-terminal 12 aa] registered a protein stability index under setting [1] of 0.69603 ± 0.00028 and a protein stability index (genetic background: wild type) of 0.689 ± 0.041.
The sequence TNGLINQFKEWM [PGI1 C-terminal 12 aa] yielded a protein stability index under setting [1] of 0.673 ± 0.015 and a protein stability index (genetic background: wild type) of 0.736 ± 0.082.
The matching figures for TPLGPKPDIRPP [GTO3 C-terminal 12 aa]: 0.712 ± 0.013 and 0.693 ± 0.017.
The matching figures for “TPLPGLSWPFNE [YIL014C-A C-terminal 12 aa]”: 0.74 ± 0.021 and 0.74 ± 0.061.
The matching figures for TPVIDFSLKLAH [BNA6 C-terminal 12 aa]: 0.693 ± 0.017 and 0.7 ± 0.026.
In the case of TQQVVDDVLSRL [LYS12 C-terminal 12 aa], the protein stability index reads like this: under setting [1], 0.738 ± 0.0082; (genetic background: wild type) 0.732 ± 0.038.
For TSSTPLVIVDSK [HXT10 C-terminal 12 aa], the protein stability index is, setting by setting: under setting [1], 0.672 ± 0.013; (genetic background: wild type) 0.713 ± 0.064.
The matching figures for TTEKKKKKCVLL [RHO1 C-terminal 12 aa]: 0.684 ± 0.0099 and 0.6878 ± 0.0017.
The matching figures for TTIKNIDILNRT [SMC4 C-terminal 12 aa]: 0.717 ± 0.024 and 0.694 ± 0.048.
As to “TTVDRTGNGAFW [YLR154C-H C-terminal 12 aa]”, the protein stability index runs as follows: under setting [1], 0.703 ± 0.017; (genetic background: wild type) 0.723 ± 0.036.
The matching figures for “TVPEFPAPIFPN [YDL159C-B C-terminal 12 aa]”: 0.72 ± 0.019 and 0.689 ± 0.0079.
In the case of TVQSKLGDHGFN [PEP7 C-terminal 12 aa], the protein stability index was determined as 0.679 ± 0.015 under setting [1] and 0.707 ± 0.048 (genetic background: wild type).
The matching figures for TYKRIKQDEKTD [ALG12 C-terminal 12 aa]: 0.7248 ± 0.0072 and 0.707 ± 0.015.
The matching figures for VACNPVAMADHQ [TUS1 C-terminal 12 aa]: 0.71 ± 0.033 and 0.677 ± 0.019.
With VADAMLDQGDVF [GDH3 C-terminal 12 aa], the protein stability index by setting is: under setting [1], 0.7137 ± 0.0052; (genetic background: wild type) 0.6894 ± 0.0047.
As to VDDYVAAGFQTL [SUT2 C-terminal 12 aa], the protein stability index reads like this: under setting [1], 0.7372 ± 0.0021; (genetic background: wild type) 0.714 ± 0.018.
The matching figures for “VDFLSKKLLKLR [YFL041W-A C-terminal 12 aa]”: 0.694 ± 0.0088 and 0.708 ± 0.0078.
The matching figures for VDIALYLTRSQT [YGR039W C-terminal 12 aa]: 0.699 ± 0.017 and 0.694 ± 0.011.
For the sequence VEIFVDKLIDFL [THI80 C-terminal 12 aa], the protein stability index is, setting by setting: under setting [1], 0.674 ± 0.014; (genetic background: wild type) 0.656 ± 0.027.
For VEMAVKFGKNAF [RIB4 C-terminal 12 aa], the protein stability index runs as follows: under setting [1], 0.696 ± 0.012; (genetic background: wild type) 0.689 ± 0.059.
As to VESKFTEKIKSM [RPC19 C-terminal 12 aa], the protein stability index is 0.6704 ± 0.0024 under setting [1] and 0.559 ± 0.027 (genetic background: wild type).
Consider VETELEMVAEKA [YEH1 C-terminal 12 aa], for which the protein stability index under setting [1] was found to be 0.646 ± 0.0079 and the protein stability index (genetic background: wild type) amounted to 0.665 ± 0.061.
The matching figures for VFLYRKRIFIKL [GWT1 C-terminal 12 aa]: 0.606 ± 0.021 and 0.485 ± 0.023.
As for VFTPFLFGELIG [ERG1 C-terminal 12 aa], the protein stability index stood at 0.718 ± 0.0073 under setting [1] and 0.712 ± 0.035 (genetic background: wild type).
As for VHDQTNLELYYL [HUB1 C-terminal 12 aa], the protein stability index was 0.708 ± 0.0075 under setting [1] and 0.6895 ± 0.0058 (genetic background: wild type).
The matching figures for VHKDLDIKTVTL [PRO2 C-terminal 12 aa]: 0.691 ± 0.013 and 0.671 ± 0.0073.
The matching figures for VHKLGWSLSFDA [POR1 C-terminal 12 aa]: 0.706 ± 0.022 and 0.6642 ± 0.0033.
The matching figures for “VILYRSVMKLSP [YOR073W-A C-terminal 12 aa]”: 0.646 ± 0.011 and 0.66 ± 0.017.
In the case of VISYLLGADIHF [SMF3 C-terminal 12 aa], the protein stability index turned out to be 0.712 ± 0.013 under setting [1] and 0.7135 ± 0.0039 (genetic background: wild type).
As to VKDRPRGKDARL [RML2 C-terminal 12 aa], the protein stability index by setting is: under setting [1], 0.727 ± 0.058; (genetic background: wild type) 0.805 ± 0.029.
The matching figures for VKKCWEKEKDGI [MKK2 C-terminal 12 aa]: 0.675 ± 0.018 and 0.663 ± 0.026.
As for VLDQITGDLKLY [PTH2 C-terminal 12 aa], the protein stability index reads like this: under setting [1], 0.691 ± 0.014; (genetic background: wild type) 0.6285 ± 0.0052.
In the case of “VLLIRSDKKKKV [YIL102C-A C-terminal 12 aa]”, the protein stability index is 0.71 ± 0.024 under setting [1] and 0.696 ± 0.035 (genetic background: wild type).
Take VLSNLAVKALQN [PRM3 C-terminal 12 aa]: the protein stability index is 0.68 ± 0.018 under setting [1] and 0.646 ± 0.023 (genetic background: wild type).
As to “VMQVQCLFFFIL [YJL156W-A C-terminal 12 aa]”, the protein stability index came out at 0.556 ± 0.019 under setting [1] and 0.284 ± 0.0037 (genetic background: wild type).
The matching figures for VNNAPARAKVSK [RCR2 C-terminal 12 aa]: 0.67539 ± 0.00065 and 0.669 ± 0.0023.
In the case of VPELTEKLGKYK [AIM45 C-terminal 12 aa], the protein stability index was found to be 0.697 ± 0.019 under setting [1] and 0.676 ± 0.026 (genetic background: wild type).
Take VRKNVTWNNLWE [CTF18 C-terminal 12 aa]: the protein stability index came out at 0.705 ± 0.013 under setting [1] and 0.682 ± 0.042 (genetic background: wild type).
The matching figures for VRKVAQWLQQLT [FSH2 C-terminal 12 aa]: 0.6838 ± 0.0012 and 0.5807 ± 0.0037.
VSGFYDHDINGY [APJ1 C-terminal 12 aa] yielded a protein stability index under setting [1] of 0.7529 ± 0.0033 and a protein stability index (genetic background: wild type) of 0.722 ± 0.0078.
The matching figures for VSIKKLGRKLEN [FYV6 C-terminal 12 aa]: 0.727 ± 0.023 and 0.6469 ± 0.0013.
